Measurements from article PMC5773591, “Structural basis of trans-synaptic interactions between PTPδ and SALMs for inducing synapse formation” (Nature Communications, 2018).

B1: human SALM5 LRR–Ig-His6 (residues 18–378) [human] / itself (parent)
chain: QICPKRCVCQILSPNLATLCAKKGLLFVPPNIDRRTVELRLADNFVTNIKRKDFANMTSLVDLTLSRNTISFITPHAFADLRNLRALHLNSNRLTKITNDMFSGLSNLHHLILNNNQLTLISSTAFDDVFALEELDLSYNNLETIPWDAVEKMVSLHTLSLDHNMIDNIPKGTFSHLHKMTRLDVTSNKLQKLPPDPLFQRAQVLATSGIISPSTFALSFGGNPLHCNCELLWLRRLSREDDLETCASPPLLTGRYFWSIPEEEFLCEPPLITRHTHEMRVLEGQRATLRCKARGDPEPAIHWISPEGKLISNATRSLVYDNGTLDILITTVKDTGAFTCIASNPAGEATQIVDLHIIKLP

Variants of: B1
Assay: SEC-MALS
Conditions: with itself; read off a plot

screen value	Variant
56 kDa	QICPKRCVCQILSPNLATLCAKKGLLFVPPNIDRRTVELRLADNFVTNIKRKDFANMTSLVDLTLSRNTISFITPHAFADLRNLRALHLNSNRLTKITNDMFSGLSNLHHLILNNNQLTLISSTAFDDVFALEELDLSYNALETIPWDAVEKMVSLHTLSLDHNMIDNIPKGTFSHLHKMTRLDVTSNKLQKLPPDPLFQRAQVLATSGIISPSTFALSFGGNPLHCNCELLWLRRLSREDDLETCASPPLLTGRYFWSIPEEEFLCEPPLITRHTHEMRVLEGQRATLRCKARGDPEPAIHWISPEGKLISNATRSLVYDNGTLDILITTVKDTGAFTCIASNPAGEATQIVDLHIIKLP [chain 1 N141A]
